From US20250283065A1, “TRUNCATED POLYPEPTIDES HAVING PROTEIN LIGASE ACTIVITY AND METHODS OF PRODUCTION THEREOF” (NANYANG TECHNOLOGICAL UNIVERSITY, priority 2022, published 2025)

Key:
[1] = test system: OaAEP1b-C247A-Δ351; test: Active site titration by FRET ligation assay with covalent inhibitor; assay type: biochemical, Oldenlandia affinis; conditions: enzyme 280 nM, 1 hour incubation
Protocol: Active site titration: The procedure described in reference was followed. The enzyme preparation was diluted to a concentration of 280 nM using a buffer containing 20 mM sodium phosphate at pH 6.5, 5 mM 2-Mercaptoethanol. Solutions containing serial twofold dilution of inhibitor YVAD-cmk were prepared in a black microtiter plate (Greiner Bio-One) using buffer as diluent. The enzyme was subsequently added to the wells containing the inhibitor to a final volume of 50 μL. The plate was incubated for 1 hour at room temperature before adding FRET peptides (PIE {EDANS} YNAL (SEQ ID NO:18) and GIK {DABSYL} SIP (SEQ ID NO: 19)), which were mixed at a molar ratio of 1:3 giving a final enzyme: substrate molar ratio of 1:200. The EDANS fluorescence signal was measured with an excitation wavelength of 336 nm and an emission wavelength of 490 nm. Relative fluorescence units (RFU) of quenched EDANS signal were plotted against time. The value of the initial velocity (Vi) was determined from the slope of the RFU (t) curve. The measured value of Vi was subsequently normalized by dividing with the initial rate obtained in the absence of inhibitor (control V0). The calculated Vi/V0 ratio was plotted against inhibitor concentrations, generating an inhibition curve. […]

[2] = target: mixture of FRET peptides A: PIE{EDANS}YNAL and B: GIK{DABSYL}SIP at a molar ratio of 1:3
[3] = test system: peptides PIE {EDANS} YNAL and GIK {DABSYL} SIP; test: FRET ligation kinetics assay; assay type: biochemical; conditions: 50 nM enzyme, peptides A:B molar ratio 1:3
Protocol: Kinetics assay: The kinetic properties of the peptide ligation of the constitutively active PAL were studied using a FRET assay. Two peptides synthesized by GenScript: PIE {EDANS} YNAL (SEQ ID NO:18) and GIK {DABSYL} SIP (SEQ ID NO:19) were mixed at a molar ratio of 1:3. Upon ligation, the peptide PIE {EDANS} YNGIK {DABSYL} SIP (SEQ ID NO: 20) is produced. 50 nM of PAL enzyme is mixed with various concentrations of the peptide mixture. The EDANS fluorescence signal was measured with an excitation wavelength of 336 nm and an emission wavelength of 490 nm. A reduction in EDANS fluorescence signal occurs upon ligation of the two peptides due to quenching by DABSYL. The variation in fluorescence signal for each substrate mixture concentration was measured after addition of the enzyme to initiate the reaction. The rate of decrease in fluorescence signal during the first 30 seconds after enzyme addition was plotted against the substrate concentration to obtain the Vmax, kcat and KM values for each enzyme.
Next, using a FRET ligation assay, the ligase activity of the truncated OaAEP1b-C247A-Δ351 was compared with its acid-activated zymogen counterpart. Briefly, 50 nM of either enzyme was added to a mixture of two peptides A: PIE (EDANS) YNAL (SEQ ID NO:18) and B: GIK (DABSYL) SIP (SEQ ID NO:19). These two peptides were mixed in a A:B molar ratio of 1:3. Upon ligation, the fluorescence signal emission of the EDANS moiety of A (λem=490 nm) becomes quenched by the DABSYL moiety of B. (FIG. 7A). This assay the ligation rate to be followed between both peptides in real-time, giving access to the kinetic parameters of the truncated enzyme.

[4] = target: OaAEP1b-C247A-Δ351 with His-tag and TEV cleavage sequence (construct for recombinant expression) (Oldenlandia affinis); test: cell-based or functional assay

Row | Molecule | Km (FRET ligation assay) [2] [µM] | Vmax (FRET ligation assay) [2] [RFU/see] | further results
1 | ac-YVAD-cmk [reference compound] |  |  | minimal concentration of inhibitor necessary for a complete inhibition of the ligation activity [1]: 150 nM
2 | acid-activated OaAEP1b-C247A (protein) MVRYLAGAVLLLVVLSVAAAVSGARDGDYLHLPSEVSRFFRPQETNDDHGEDSVGTRWAVLIAGSKGYANYRHQAGVCHAYQILKRGGLKDENIVVFMYDDIAYNESNPRPGVIINSPHGSDVYAGVPKDYTGEEVNAKNFLAAILGNKSAITGGSGKVVDSGPNDHIFIYYTDHGAAGVIGMPSKPYLYADELNDALKKKHASGTYKSLVFYLEACESGSMFEGILPEDLNIYALTSTNTTESSWAYYCPAQENPPPPEYNVCLGDLFSVAWLEDSDVQNSWYETLNQQYHHVDKRISHASHATQYGNLKLGEEGLFVYMGSNPANDNYTSLDGNALTPSSIVVNQRDADLLHLWEKFRKAPEGSARKEEAQTQIFKAMSHRVHIDSSIKLIGKLLFGIEKCTEILNAVRPAGQPLVDDWACLRSLVGTFETHCGSLSEYGMRHTRTIANICNAGISEEQMAEAASQACASIP | 8.34 | 14.32 | 
3 | acid-activated OaAEP1b-C247A: full-length OaAEP1b-C247A proenzyme expressed in E. coli and activated at low pH according to reference [17] (protein, listed as Oldenlandia affinis, acid-activated) MVRYLAGAVLLLVVLSVAAAVSGARDGDYLHLPSEVSRFFRPQETNDDHGEDSVGTRWAVLIAGSKGYANYRHQAGVCHAYQILKRGGLKDENIVVFMYDDIAYNESNPRPGVIINSPHGSDVYAGVPKDYTGEEVNAKNFLAAILGNKSAITGGSGKVVDSGPNDHIFIYYTDHGAAGVIGMPSKPYLYADELNDALKKKHASGTYKSLVFYLEACESGSMFEGILPEDLNIYALTSTNTTESSWAYYCPAQENPPPPEYNVCLGDLFSVAWLEDSDVQNSWYETLNQQYHHVDKRISHASHATQYGNLKLGEEGLFVYMGSNPANDNYTSLDGNALTPSSIVVNQRDADLLHLWEKFRKAPEGSARKEEAQTQIFKAMSHRVHIDSSIKLIGKLLFGIEKCTEILNAVRPAGQPLVDDWACLRSLVGTFETHCGSLSEYGMRHTRTIANICNAGISEEQMAEAASQACASIP |  |  | Vmax [3]: 14.32 RFU/see
4 | YVAD (N-terminal acetyl; C-terminal chloromethylketone (cmk)) [Ac-YVAD-cmk] |  |  | fraction of the measured protein concentration that is active and amenable to complete inhibition (active site titration) [4]: 53%; minimal concentration of inhibitor necessary for a complete inhibition of the ligation activity (active site titration, enzyme at 280 nM) [4]: 150 nM
5 | OaAEP1b-C247A-Δ351 with His-tag and TEV cleavage sequence (construct for recombinant expression) (protein) MHHHHHHSSGVDLGTENLYFQSVGTRWAVLIAGSKGYANYRHQAGVCHAYQILKRGGLKDENIVVFMYDDIAYNESNPRPGVIINSPHGSDVYAGVPKDYTGEEVNAKNFLAAILGNKSAITGGSGKVVDSGPNDHIFIYYTDHGAAGVIGMPSKPYLYADELNDALKKKHASGTYKSLVFYLEACESGSMFEGILPEDLNIYALTSTNTTESSWCYYCPAQENPPPPEYNVCLGDLFSVAWLEDSDVQNSWYETLNQQYHHVDKRISHASHATQYGNLKLGEEGLFVYMGSNPANDNYTSLDGNALTPSSIVVNQRDAD | 8.16 | 6.40 | 
